The record followed here is US20240425607A1, “IL-18BP ANTAGONIST ANTIBODIES AND THEIR USE IN MONOTHERAPY AND COMBINATION THERAPY IN THE TREATMENT OF CANCER” (Compugen Ltd., priority 2023, published 2024).

Data set [1] is described as follows: SEC-HPLC % monomer. Format: physicochemical. The settings on record: optimized antibodies. The method, then: A TSKgel SuperSW mAb HTP column (22855) was used for fast SEC analysis of mammalian produced mAbs at 0.4 mL/min with a cycle time of 6 min/run. 200 mM Sodium Phosphate and 250 mM Sodium Chloride was used as the mobile phase.
Background: SEC sorts molecules by how far they enter the pores of the column.

Data set [2] in a line: Fab Tm by dynamic scanning fluorimetry (DSF). It counts as physicochemical. Conditions: optimized antibodies. The method, then:
10 μL of 20× Sypro Orange is added to 20 μL of 0.2-1 mg/mL mAb or Fab solution. A RT-PCR instrument (BioRad CFX96 RT PCR) is used to ramp the sample plate temperature from 40 to 95° C. at 0.5° C. increment, with 2 min equilibrate at each temperature. The negative of first derivative for the raw data is used to extract Tm.

B1: ADI-71719: anti-IL18-BP antibody, sequences in FIG. 2B; 66670 lineage (antibody, V domains shown)
VH: QVQLVQSGAEVKKPGSSVKVSCKASGGTFNSYVISWVRQAPGQGLEWMGGIIPGAGTANYAQKFQGRVTITADESTSTAYMELSSLRSEDTAVYYCARGRHSHETWGQGTLVTVSS
VL: DIQMTQSPSSVSASVGDRVTITCRASQGISSWLAWYQQKPGKAPKLLIYAASSLQSGVPSRFSGSGSGTDFTLTISSLQPEDFATYYCQQVYSLPWTFGGGTKVEIK
Turning to B1, the “SEC-HPLC, % monomer” value in data set [1] came to 94.5%. In addition, in data set [2], the “Fab Tm (DSF, ° C.)” value turned out to be 72.5 °C.

B2: ADI-71736: anti-IL18-BP antibody, sequences in FIG. 2L; 66716 lineage (antibody, V domains shown)
VH: QLQLQESGPGLVKPSETLSLTCTVSGGSISSSEYGWGWIRQPPGKGLEWIGSIVNSGSTYYNPSLKSRVTISVDTSKNQFSLKLSSVTAADTAVYYCARGPHRQVFDYWGQGTLVTVSS
VL: DIQMTQSPSSVSASVGDRVTITCRASQGISSWLAWYQQKPGKAPKHLIYAASSLQSGVPSRFSGSGSGTDFTLTISSLQPEDFATYYCQQGFSFPYTFGGGTKVEIK
Turning to B2, the “SEC-HPLC, % monomer” value in data set [1] is given as 79.2%. Besides, the “Fab Tm (DSF, ° C.)” value in data set [2] was determined as 73.5 °C.

B3: ADI-71720: anti-IL18-BP antibody, sequences in FIG. 2C; 66670 lineage (antibody, V domains shown)
VH: QVQLVQSGAEVKKPGSSVKVSCKASGGTFSEYVISWVRQAPGQGLEWMGGIIPGAGTANYAQKFQGRVTITADESTSTAYMELSSLRSEDTAVYYCARGRHSHETWGQGTLVTVSS
VL: DIQMTQSPSSVSASVGDRVTITCRASQGISSWLAWYQQKPGKAPKLLIYAASSLQSGVPSRFSGSGSGTDFTLTIGSLQPEDFATYYCQQVYSLPWTFGGGTKVEIK
As for B3, the “SEC-HPLC, % monomer” value in data set [1] was 98.6%. Further, the “Fab Tm (DSF, ° C.)” value in data set [2] turned out to be 72.5 °C.

B4: ADI-71663: anti-IL18-BP antibody, sequences in FIG. 2F; 66692 lineage (antibody, V domains shown)
VH: EVQLLESGGGLVQPGGSLRLSCAASGFTFGNTAMSWVRQAPGKGLEWVSAISANAGSTYYADSVKGRFTISRDNSKNTLYLQMNSLRAEDTAVYYCAKGPDRQVFDYWGQGTLVTVSS
VL: DIQMTQSPSSVSASVGDRVTITCRASQGISSWLAWYQQKPGKAPKLLIYAASSLQSGVPSRFSGSGSGTDFTLTISSLQPEDFATYYCQHALFFPYTFGGGTKVEIK
On to B4, for which, in data set [1], the “SEC-HPLC, % monomer” value was determined as 93.9%. Moreover, in data set [2], the “Fab Tm (DSF, ° C.)” value is 68.0 °C.

B5: ADI-71742: anti-IL18-BP antibody, sequences in FIG. 2Q (antibody, V domains shown)
VH: QLQLQESSPGLVKPSETLSLTCTVSGGSISSPDYPWGWIRQPPGKGLEWIGSIFYSGNTYYNPSLKSRVTISVDTSKNQFSLKLSSVTAADTAVYYCARGPHRQVFDYWGQGTLVTVSS
VL: DIQMTQSPSSVSASVGDRVTITCRASQGISSWLAWYQQKPGKAPKLLIYAASSLQSGVPSRFSGSGSGTDFTLTISSLQPEDFATYYCQQGWSFPYTFGGGTKVEIK
On to B5, for which the “SEC-HPLC, % monomer” value in data set [1] worked out at 91.3%. Moreover, the “Fab Tm (DSF, ° C.)” value in data set [2] amounted to 74.0 °C.

B6: ADI-71755: anti-IL18-BP antibody, sequences in FIG. 2T (antibody, V domains shown)
VH: QLQLQESGPGLVKPSETLSLTCTVSGGSISSPDYPWGWIRQPPGKGLEWIGSIFYSGNTYYNPSLKSRVTISVDTSKNQFSLKLSSVTAADTAVYYCARGPFRQVFDYWGQGTLVTVSS
VL: DIQMTQSPSSVSASVGDRVTITCRASQGISSWLAWYQQKPGKAPKLLIYAASSLQSGVPSRFSGSGSGTDFTLTISSLQPEDFATYYCQQGWSFPYTFGGGTKVEIK
Take B6: the “SEC-HPLC, % monomer” value in data set [1] came to 92.9%. Further, the “Fab Tm (DSF, ° C.)” value in data set [2] was found to be 74.5 °C.

B7: ADI-71741: anti-IL18-BP antibody, sequences in FIG. 2P (antibody, V domains shown)
VH: QLQLQESGPGLVKPSETLSLTCTVSGGSISSSDYPWGWIRQPPGKGLEWIGSIYYSGSTYYNPSLKSRVTISVDTSKNQFSLKLSSVTAADTAVYYCARGPYRQVFDYWGQGTLVTVSS
VL: DIQMTQSPSSVSASVGDRVTITCRASQGISSWLAWYQQKPGKAPKLLIYAASSLQSGVPSRFSGSGSGTDFTLTISSLQPEDFATYYCQQGNSFPYTFGGGTKVEIK
For B7, the “SEC-HPLC, % monomer” value in data set [1] came out at 99.4%. In data set [2], the “Fab Tm (DSF, ° C.)” value turned out to be 73.5 °C.

B8: ADI-71728: anti-IL18-BP antibody, sequences in FIG. 2O; 66670 lineage (antibody, V domains shown)
VH: QVQLVQSGAEVKKPGSSVKVSCKASGGTFSEYPISWVRQAPGQGLEWMGGIIPYSGTAVYAQKFQGRVTITADESTSTAYMELSSLRSEDTAVYYCARGRHGHETWGQGTLVTVSS
VL: DIQMTQSPSSVSASVGDRVTITCRASQGISSWLAWYQQKPGKAPKLLIYAASSLQSGVPSRFSGSGSGTDFTLTISSLQPEDFATYYCQQVYSIPWTFGGGTKVEIK
For B8, in data set [1], the “SEC-HPLC, % monomer” value was found to be 95.0%. The “Fab Tm (DSF, ° C.)” value in data set [2] was 73.0 °C.

B9: ADI-71753: anti-IL18-BP antibody, sequences in FIG. 2S (antibody, V domains shown)
VH: QLQLQESGPGLVKPSETLSLTCTVSGGSIFSSDYYWSWIRQPPGKGLEWIGVIAYSGSTYYNPSLKSRVTISVDTSKNQFSLKLSSATAADTAVYYCARGPFRQVFDYWGQGTLVTVSS
VL: DIQMTQSPSSVSASVGDRVTITCRASQGISSWLAWYQQKPGKAPKLLIYAASSLQSGVPSRFSGSGSGTDFTLTISSLQPEDFATYYCQQGSSFPYTFGGGTKVEIK
With B9, the “SEC-HPLC, % monomer” value in data set [1] was determined as 96.9%. The “Fab Tm (DSF, ° C.)” value in data set [2] came to 74.5 °C.

B10: ADI-71744: anti-IL18-BP antibody, sequences in FIG. 2R (antibody, V domains shown)
VH: QLQLQESGPGLVKPSETLSLTCTVSGGSISSSEYGWGWIRQPPGKGLEWIGSIVNSGSTYYNPSLKSRVTISVDTSKNQFSLKLSSVTAADTAVYYCARGPYRQVFDYWGQGTLVTVSS
VL: DIQMTQSPSSVSASVGDRVTITCRASQGISSWLAWYQQKPGKAPKLLIYAASSLQSGVPSRFSGSGSGTDFTLTISSLQPEDFATYYCQQGWSFPYTFGGGTKVEIK
As for B10, in data set [1], the “SEC-HPLC, % monomer” value is given as 88.1%. In addition, the “Fab Tm (DSF, ° C.)” value in data set [2] was 74.5 °C.

B11: ADI-71710: anti-IL18-BP antibody, sequences in FIG. 2I; 66650 lineage (antibody, V domains shown)
VH: QVQLVQSGAEVKKPGASVKVSCKASGYTFGIYAMHWVRQAPGQRLEWMGWIHAGTGVTKYSQKFQGRVTITRDTSASTAYMELSSLRSEDTAVYYCARGLGEVGPTGTSWFDPWGQGTLVTVSS
VL: DIQMTQSPSTLSASVGDRVTITCRASQSISSWLAWYQQKPGKAPKLLIYEASSLESGVPSRFSGSGSGTEFTLTISSLQPDDFATYYCQQYRYSPFTFGGGTKVEIK
Turning to B11, in data set [1], the “SEC-HPLC, % monomer” value came out at 97.9%. Besides, the “Fab Tm (DSF, ° C.)” value in data set [2] stood at 71.5 °C.

B12: ADI-71701: anti-IL18-BP antibody, sequences in FIG. 2E; 66650 lineage (antibody, V domains shown)
VH: QVQLVQSGAEVKKPGASVKVSCKASGYTFNSYAMHWVRQAPGQRLEWMGWIHAGTGNTKYSQKFQGRVTITRDTSASTAYMELSSLRSEDTAVYYCARGLGEVGPTGTSWFDPWGQGTLVTVSS
VL: DIQMTQSPPTLSASVGDRVTITCRASQSISSWLAWYQQKPGKAPKLLIYEASSLESGVPSRFSGSGSGTEFTLTISSLQPDDFATYYCQQYRVFPFTFGGGTKVEIK
In the case of B12, in data set [1], the “SEC-HPLC, % monomer” value is 98.6%. Also, the “Fab Tm (DSF, ° C.)” value in data set [2] was 71.5 °C.

B13: ADI-71707: anti-IL18-BP antibody, sequences in FIG. 2M; 66650 lineage (antibody, V domains shown)
VH: QVQLVQSGAEVKKPGASVKVSCKASGYTFRHYAMHWVRQAPGQRLEWMGWIHAGTGNTLYSQKFQGRVTITRDTSASTAYMELSSLRSEDTAVYYCARGLGEVGPTGTSWFDPWGQGTLVTVSS
VL: DIQMTQSPSTLSASVGDRVTITCRASQSISSWLAWYQQKPGKAPKLLIYEASSLESGVPSRFSGSGSGTEFTLTISSLQPDDFATYYCQQYRLGPFTFGGGTKVEIK
In the case of B13, the “SEC-HPLC, % monomer” value in data set [1] is listed as 98.8%. Also, the “Fab Tm (DSF, ° C.)” value in data set [2] was found to be 71.0 °C.
